# Source: patent US20260234242A1 (HAINAN SIMCERE ZAIMING PHARMACEUTICAL, published 2026)
# Substitutions are numbered along the chain they refer to.
# B1: CHI-CDH6-1 (antibody, human IgG1, kappa, V domains shown)
# VH: QVQLQQPGAELVRPGSSVKLSCKASGYTFTNYWMHWVKQRPIEGLEWIGDIDPSHSETHYTQKFKDKATLTVDKSSSTAYMQLSSLTSEDSAVYYCARGDLGRFDYWGQGTTLTVSS
# VL: DIVLTQSPASLAVSLGQRATISCRASESVSIHGTHLMHWYQQKSGQPPKLLIYAASNLESGVPARFSGSGSETDFTFNIHPVEEEDAATYFCQQSFEDPWTFGGGTKLEIKR
# notes: also called CHI-hCDH6-1; CH1-CDH6-1
# B2: CHI-CDH6-10 (antibody, human IgG1, kappa, V domains shown)
# VH: QVQLQQPGAELVKPGTSVKMSCKASGYTFTSDWIAWVKQRPGQGLEWIGDIYPGSGRTHNNEKFNFKATLTVDTSSNTAYMQLSSLTSEDSAVYFCARPMLGRFDYWGQGTTLTVSS
# VL: B1 VL with S44P, F77L, W100F, G104S
# notes: also called chimeric antibody of murine CDH6-10
# B3: CHI-CDH6-11 (antibody, human IgG1, kappa, V domains shown)
# VH: QIQLQQSGPELVKPGASVRISCKASGYTFTDYYITWVKLRPGQGLEWIGWIYPGSVNIKYNEKFKGKATLTVDTSSSTAYMQLNSLTSEDSAVYFCARGGYSWFPYWGQGTLVTVSA
# VL: NIVMTQSPKSMSMSVGERVTLSCKASENVHTYVSWYQQKPEQSPKLLFYGASTRNTGVPDRFTGSGSATDFTLTISSVQAEDLADYYCGQSYSYPYTFGSGTKLEIKR
# notes: also called chimeric antibody of murine CDH6-11
# B4: CHI-CDH6-6 (antibody, human IgG1, kappa, V domains shown)
# VH: EVQLQQSGPELVKPGDSVKMSCKASGYTFTDYYMAWVRQSHRKSLEWIGYIFPNSGGTDYSQKFKGKATLTVDKSSSTVYMELHSLTSEDSAVYYCARELGADYGDYYAMDHWGQGTSVSVSS
# VL: DIQMTQSPASLSASVGETVTITCRASENIDSYLAWYQQKQGKSPQLLVYSATLLADGVPSRFSGSGSGTQYSLKINSLKSEDVARYYCQHYYRTPPTFGSGTKLEIKR
# notes: also called CHI-hCDH6-6; chimeric antibody of murine CDH6-6
# B5: CHI-CDH6-8 (antibody, human IgG1, kappa, V domains shown)
# VH: EVQLQQSGPELVKPGDSVKMSCKASGYTFTDYYMAWIKQNHGKSLEWIGYIYPNNGGTDYNQKFRGKATLTVDKSSSAAYMELHSLTSEDSAVYYCAREIGTLYGDYYAMDYWGQGTSVTVSS
# VL: B4 VL with S50T, K79Q, R93S
# notes: also called chimeric antibody of murine CDH6-8
# B6: CHI-CDH6-2 (antibody, human IgG1, kappa, V domains shown)
# VH: EVQLQQSGPELVKPGASVRISCKASGYTFTDYYMNWVKQSHGKSLEWIGDIDPNNANTTYNQKFKGKATLTVDKSSSTAYMELRSLTSEDSAVYSCASFGYDVEWFGYWGQGTLVTVSA
# VL: QIVLTQSPALMSASPGEKVTMTCSASSSVSYMYWYQQKPRSSPKPWIYLTSNLASGVPARFSGSGSGTSYSLTISSMEAEDAATYYCQQWSSNPFTFGSGTKLEIKR
# notes: also called chimeric antibody of murine CDH6-2
# B7: CHI-CDH6-13 (antibody, human IgG1, kappa, V domains shown)
# VH: DVQLQESGPGLVKPSQSLSLTCSVTGYSITKDSYWNWIRQFPGSKLEWMGFISYDGSRHYNPSLKNRISITRDTSKNQFFLQLNSVTTEDTATYYCARRDYADYWGQGTTLTVSS
# VL: B6 VL with S14F, S26T, M32I, S75N, M77L, N93I, F95Y, S99G
# notes: also called chimeric antibody of murine CDH6-13
# B8: NOV0712 (antibody, human IgG1, kappa, V domains shown)
# VH: QVQLLESGGGLVQPGGSLRLSCAASGFTFSSHGMHWVRQAPGKGLEWVSVISGSGSNTGYADSVKGRFTISRDNSKNTLYLQMNSLRAEDTAVYYCARQWGSYAFDSWGQGTLVTVSS
# VL: DIQMTQSPSSLSASVGDRVTITCRASQSISSYLNWYQQKPGKAPKLLIYAVSTLQSGVPSRFSGSGSGTDFTLTISSLQPEDFATYYCQQSGTFPPTTFGQGTKVEIKR
# notes: Positive control, variable regions from WO2018212136A1; also called positive control anti-human CDH6 antibody
# B9: CHI-CDH6-9 (antibody, human IgG1, kappa, V domains shown)
# VH: QVQLQQPGAELVKPGASVKLSCKASGYTFTGYWMHWVRQRPGQGLEWIGEINPNNGGTNCNEQFKNKATLTVDKSSSTAYMQLSSLTSEDSAVFYCTISFGNYLFFDVWGAGTTVTVSS
# VL: DIQMTQSPASLAASVGETITITCQASENIYFSLAWYQQKQGKSPQLLIYNANTLEDGVPSRFVGSGSGTQYSMKINSIQPEDTATYFCDQTYDFPWTFGGGTKLEIKR
# notes: also called chimeric antibody of murine CDH6-9
# B10: CHI-CDH6-3 (antibody, human IgG1, kappa, V domains shown)
# VH: QVQLQQPGAELVKPGASVKLSCKASGYTFTSYWIHWVKQRPGQGLEWIGEINPSNGVTNCNENFKSKATLTVDKSSSTAYMQLSSLTSEDSAVYYCTIPNLLWWYFDVWGAGTTVTVSS
# VL: DIQMTQSPASLSVSVGETVTITCRASENIYSNLAWYQQKQGKSPQLLVYEATNLADGVPSRFSGSGSGTQYSLKINSLQSEDFGSYYCQHFWGTLWTFGGGTKLEIKR
# notes: also called CH1-CDH6-3; chimeric antibody of murine CDH6-3
# B11: CHI-CDH6-7 (antibody, human IgG1, kappa, V domains shown)
# VH: EVKLVESGGGLVKPGGSLKVSCAASGFTFSDHGMAWVRQAPGKGPEWVAFISNLAYSIYYADTVTGRFTISRENAKNTLYLEMSSLRSEDTAMYYCARVYVKWYFDVWGAGTTVTVSS
# VL: B4 VL with Y49F, S50A, K79Q, R93S, P96L, S100A, I106L
# notes: also called CH1-CDH6-7; chimeric antibody of murine CDH6-7
# B12: CHI-CDH6-5 (antibody, human IgG1, kappa, V domains shown)
# VH: QVQLQQSGAELVRPGTSVKMSCKAAEYTFTNYWIGWVKQRPGHGLEWIGDLYPGGDHANYNEKFEGKATLTADTSSSTAYMQLSSLTSEDSAIYYCARGMLTTGFDSWGQGTTLTVSS
# VL: DIVMSQSPSSLAVSAGEKVTMSCKSSQSLFNSRTRKNYLAWYQQKPGQSPKLLIYWASTRESGVPDRFTGSGSGTDFTLTISSVQAEDLAVYYCKQSYYLRTFGGGTKLEIKR
# notes: also called CH1-CDH6-5; chimeric antibody of murine CDH6-5
# B13: CHI-CDH6-4 (antibody, human IgG1, kappa, V domains shown)
# VH: QVQLQQSGPELVKPGASVKISCKASGYAFSNFWMNWVKQRPGKGLEWIGWIYPGDGDTNYNGKFKDKATLTADKSSSTAYIQLSSLTSEDSAVYFCARLYDAWGFFDYWGQGTTLTVSS
# VL: QIVLTQSPAIMSASPGQKVTITCSASSSVNYMHWYQQKLGSSPKLWIYDKSKLAPGVPARFSGSGSGTSYSLTISSMEAEDAASYFCHQWSSYPPMTFGGGTKLEIKR
# notes: also called CH1-CDH6-4; chimeric antibody of murine CDH6-4
# Target: T1, his-tagged human CDH6 extracellular region protein (hCDH6 ECD-his) (human, UniProt P55285 19-615)
# T1 construct: also called Human CDH6-his; hCDH6-his; not shown: his tag
# T1 sequence: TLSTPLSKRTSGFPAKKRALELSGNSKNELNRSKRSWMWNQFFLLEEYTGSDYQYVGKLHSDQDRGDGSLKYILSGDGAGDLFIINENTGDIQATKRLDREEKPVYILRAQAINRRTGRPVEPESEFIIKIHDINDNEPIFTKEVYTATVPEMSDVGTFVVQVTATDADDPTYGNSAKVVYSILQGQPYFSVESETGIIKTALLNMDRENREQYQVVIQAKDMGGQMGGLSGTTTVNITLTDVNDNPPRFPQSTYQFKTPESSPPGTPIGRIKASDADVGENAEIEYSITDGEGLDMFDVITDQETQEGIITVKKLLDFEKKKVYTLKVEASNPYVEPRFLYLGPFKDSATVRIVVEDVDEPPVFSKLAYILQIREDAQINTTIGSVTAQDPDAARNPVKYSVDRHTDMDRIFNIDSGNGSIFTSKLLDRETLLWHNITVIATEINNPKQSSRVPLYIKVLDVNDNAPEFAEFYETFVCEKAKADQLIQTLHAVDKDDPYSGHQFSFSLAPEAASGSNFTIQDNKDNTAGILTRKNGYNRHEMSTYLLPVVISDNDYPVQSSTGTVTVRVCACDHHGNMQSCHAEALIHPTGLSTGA
# Assay: ELISA, coated antigen
# Protocol: (§1) Human CDH6 protein (hCDH6 ECD-his, conventionally synthesized), monkey CDH6 protein (cynoCDH6 ECD-his, conventionally synthesized; the cynoCDH6 ECD sequence was derived from Uniprot #A0A2K5TW62 (19-615)), and murine CDH6 protein (mCDH6 ECD-his, conventionally synthesized; the mCDH6 ECD sequence was derived from Uniprot #P97326 (19-615)) were diluted with PBS to a final concentration of 1 μg/mL, and added to a 96-well ELISA plate at 100 μL/well. The plate was incubated at 4° C. overnight. The next day, the plate was washed 3 times with a plate washing solution (PBS+0.01% (v/v) Tween 20), and a blocking buffer (PBS+0.01% (v/v) Tween 20+2% (w/w) BSA) was added for blocking at room temperature for 2 h. The blocking buffer was discarded, and the plate was washed 3 times. The chimeric antibodies were diluted with 1% BSA+PBS (purchased from Cytiva, Cat. No. SH30264.01) and added to the 96-well plate at 50 μL/well. After incubation at 37° C. for 2 h, the plate was washed 3 times with a plate washing solution. […] The plate was incubated at 37° C. for 1 h and then washed 5 times with a plate washing solution. A TMB substrate (purchased from Seracare, Cat. No. 5120-0077) was added at 50 μL/well and incubated at room temperature for 10 min, then a stop solution (1.0 N HCl) was added at 50 μL/well. OD450 nm values were read using a microplate reader (Biotek). Analysis was performed by the GraphPad Prism software, data were fitted, and EC50 values were calculated. The chimeric antibodies tested all had strong binding to the human CDH6 protein, the monkey CDH6 protein, and the murine CDH6 protein.
Binder,EC50 [nM],Max OD450 [OD450]
B1,0.04,2.23
B2,0.025,2.03
B3,0.034,2.24
B4,0.034,2.18
B5,0.033,2.31
B6,0.027,2.07
B7,0.009,2.62
B8,0.043,2.32
B9,0.016,2.58

# Target: T1, his-tagged human CDH6 extracellular …
# Assay: SPR Biacore 8K, antibody captured on Protein A
# Protocol: The affinity of the antibody for the antigen was determined by a multi-cycle kinetic method using a BIAcore 8K instrument. In each cycle, the antibody to be tested was captured using a Protein A chip (purchased from GE, Cat. No. 29-1275-56), and then the antigen human CDH6 protein (hCDH6-his, conventionally synthesized) was injected. The association and dissociation processes of the antibody with the antigen protein were recorded, and finally, the chip was regenerated using Glycine pH 1.5, wherein the mobile phase was HBS-EP+ (10 mM HEPES, 150 mM NaCl, 3 mM EDTA, 0.05% surfactant P20, and 1 mM Ca), the flow rate was 30 μL/min, the association time was 240 s, the dissociation time was 300 s, the regeneration time was 30 s, the detection temperature was 25° C., and the antigen concentration was 31.25-1000 nM. The data were analyzed using Biacore 8K analysis software (version No. 2.0) based on the 1:1 binding model to fit the antibody-antigen binding kinetic parameters, including the association rate constant ka, the dissociation rate constant kd, and the equilibrium dissociation constant KD. The affinity values of the control antibody DS-H01L02 were undetectable. Antibodies not shown in the table had undetectable affinity values.
Binder,Kd [nM],koff [s⁻¹],kon [M⁻¹ s⁻¹]
B1,8.87,0.00585,659000
B2,20.3,0.00364,179000
B3,5.72,0.000201,35200
B4,58.6,0.00508,86800
B5,31.2,0.00378,121000
B6,3.68,0.00185,503000
B7,78.1,0.00184,23600
B8,53.5,0.00267,49900
B9,138,0.00159,11600

# Target: T1, his-tagged human CDH6 extracellular …
# Assay: ELISA, coated antigen; ELISA, hCDH6 ECD-his coated at 1 µg/mL, antibody in solution
# Protocol: as §1
row,Binder,EC50 [nM]
1,B10,0.03
2,B11,0.488
3,B12,0.043
4,B13,0.053

# Target: T1, his-tagged human CDH6 extracellular …
# Assay: ELISA, coated antigen; ELISA, coated hCDH6 ECD-his; plateau signal
# Protocol: as §1
row,Binder,Max OD450 [OD450]
1,B10,2.56
2,B11,1.78
3,B12,1.79
4,B13,2.14
